Test results as given in publication PMC11405395 (The EMBO Journal, 2024).

What was measured:
Conditions in all cases: both partners purified
[1] = target: T1, DNA polymerase ε (Pol2, Dpb2, Dpb3, Dpb4), S. cerevisiae (S. cerevisiae, UniProt P21951 1-2222; P24482 1-689; P27344 1-201; Q04603 1-196); assay: co-IP; purified proteins mixed: 10 nM FLAG-Rrm3 with 15 nM Pol ε, 10 min on ice; anti-FLAG M2 magnetic beads; 25 mM Hepes-KOH pH 7.6, 400 mM KOAc, 0.02% NP-40-S, 0.1 mg/mL BSA, 1 mM DTT, 10 mM Mg(OAc)2; immunoblotting
T1 construct: Pol2, catalytic subunit of DNA polymerase ε, S. cerevisiae; Dpb2, second largest subunit of DNA polymerase ε, S. cerevisiae; Dpb3, subunit of DNA polymerase ε, S. cerevisiae; Dpb4, subunit of DNA polymerase ε, S. cerevisiae (DPB4-TEV-CBP); also called Polε; Pol ε; source: S. cerevisiae strain yAJ2, purified as previously described (Yeeles et al, 2015); copies: + + +
T1 sequence (P21951 whole entry, chain 1 of 4): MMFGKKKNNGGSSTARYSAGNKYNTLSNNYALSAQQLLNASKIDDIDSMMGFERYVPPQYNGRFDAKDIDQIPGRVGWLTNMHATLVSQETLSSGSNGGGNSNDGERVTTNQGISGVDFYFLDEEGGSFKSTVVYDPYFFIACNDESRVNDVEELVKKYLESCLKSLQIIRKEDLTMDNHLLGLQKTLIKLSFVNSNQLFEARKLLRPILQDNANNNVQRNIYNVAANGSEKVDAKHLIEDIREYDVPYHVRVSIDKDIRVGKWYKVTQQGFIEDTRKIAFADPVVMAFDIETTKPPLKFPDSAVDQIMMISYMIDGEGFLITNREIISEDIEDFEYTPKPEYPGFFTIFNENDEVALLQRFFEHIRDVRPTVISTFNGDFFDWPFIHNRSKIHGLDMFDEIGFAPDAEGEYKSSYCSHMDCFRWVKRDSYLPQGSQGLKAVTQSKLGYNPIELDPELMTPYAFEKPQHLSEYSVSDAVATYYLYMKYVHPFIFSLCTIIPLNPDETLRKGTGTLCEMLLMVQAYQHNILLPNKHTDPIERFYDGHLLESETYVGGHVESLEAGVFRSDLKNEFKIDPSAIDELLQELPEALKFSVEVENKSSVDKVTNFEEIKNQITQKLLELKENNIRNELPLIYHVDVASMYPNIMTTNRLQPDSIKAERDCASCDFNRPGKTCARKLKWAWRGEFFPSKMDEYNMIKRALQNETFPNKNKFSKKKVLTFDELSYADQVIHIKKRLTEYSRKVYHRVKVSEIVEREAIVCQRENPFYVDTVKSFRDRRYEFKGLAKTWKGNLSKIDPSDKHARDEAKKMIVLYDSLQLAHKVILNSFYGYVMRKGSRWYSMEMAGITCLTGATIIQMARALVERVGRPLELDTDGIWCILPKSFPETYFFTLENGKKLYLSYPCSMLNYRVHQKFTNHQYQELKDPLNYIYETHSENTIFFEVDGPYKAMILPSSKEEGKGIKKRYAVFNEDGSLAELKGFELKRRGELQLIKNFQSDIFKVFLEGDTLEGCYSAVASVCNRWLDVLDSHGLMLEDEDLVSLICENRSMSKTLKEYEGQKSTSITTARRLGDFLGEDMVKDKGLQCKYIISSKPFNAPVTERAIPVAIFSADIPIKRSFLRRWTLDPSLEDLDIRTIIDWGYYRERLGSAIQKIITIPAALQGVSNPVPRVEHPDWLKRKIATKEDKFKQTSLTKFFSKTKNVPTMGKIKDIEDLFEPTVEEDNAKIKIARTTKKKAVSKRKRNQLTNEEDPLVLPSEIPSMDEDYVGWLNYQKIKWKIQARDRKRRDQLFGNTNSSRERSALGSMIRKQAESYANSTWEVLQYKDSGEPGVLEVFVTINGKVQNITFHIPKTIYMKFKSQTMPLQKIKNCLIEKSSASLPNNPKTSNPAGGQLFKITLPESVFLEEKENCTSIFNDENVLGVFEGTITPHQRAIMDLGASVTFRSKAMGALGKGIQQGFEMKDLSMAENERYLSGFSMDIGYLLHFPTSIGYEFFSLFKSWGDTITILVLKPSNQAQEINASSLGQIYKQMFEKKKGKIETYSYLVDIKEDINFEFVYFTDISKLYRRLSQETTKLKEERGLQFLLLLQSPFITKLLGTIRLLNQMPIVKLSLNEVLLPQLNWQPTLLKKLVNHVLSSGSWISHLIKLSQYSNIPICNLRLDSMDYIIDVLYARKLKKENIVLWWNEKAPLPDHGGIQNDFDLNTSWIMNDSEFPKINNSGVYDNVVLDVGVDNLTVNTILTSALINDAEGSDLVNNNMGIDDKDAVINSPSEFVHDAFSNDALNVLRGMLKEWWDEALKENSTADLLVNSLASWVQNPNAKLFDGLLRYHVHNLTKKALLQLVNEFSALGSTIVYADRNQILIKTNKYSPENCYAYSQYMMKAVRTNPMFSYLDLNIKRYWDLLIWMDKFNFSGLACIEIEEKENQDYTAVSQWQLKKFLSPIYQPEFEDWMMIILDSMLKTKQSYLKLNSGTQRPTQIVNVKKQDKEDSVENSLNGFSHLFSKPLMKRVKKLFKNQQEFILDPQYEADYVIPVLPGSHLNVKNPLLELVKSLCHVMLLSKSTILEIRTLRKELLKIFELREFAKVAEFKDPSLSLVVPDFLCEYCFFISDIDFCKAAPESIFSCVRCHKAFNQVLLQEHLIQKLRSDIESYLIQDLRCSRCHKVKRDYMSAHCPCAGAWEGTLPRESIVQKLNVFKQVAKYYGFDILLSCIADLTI
T1 sequence (P24482 whole entry, chain 2 of 4): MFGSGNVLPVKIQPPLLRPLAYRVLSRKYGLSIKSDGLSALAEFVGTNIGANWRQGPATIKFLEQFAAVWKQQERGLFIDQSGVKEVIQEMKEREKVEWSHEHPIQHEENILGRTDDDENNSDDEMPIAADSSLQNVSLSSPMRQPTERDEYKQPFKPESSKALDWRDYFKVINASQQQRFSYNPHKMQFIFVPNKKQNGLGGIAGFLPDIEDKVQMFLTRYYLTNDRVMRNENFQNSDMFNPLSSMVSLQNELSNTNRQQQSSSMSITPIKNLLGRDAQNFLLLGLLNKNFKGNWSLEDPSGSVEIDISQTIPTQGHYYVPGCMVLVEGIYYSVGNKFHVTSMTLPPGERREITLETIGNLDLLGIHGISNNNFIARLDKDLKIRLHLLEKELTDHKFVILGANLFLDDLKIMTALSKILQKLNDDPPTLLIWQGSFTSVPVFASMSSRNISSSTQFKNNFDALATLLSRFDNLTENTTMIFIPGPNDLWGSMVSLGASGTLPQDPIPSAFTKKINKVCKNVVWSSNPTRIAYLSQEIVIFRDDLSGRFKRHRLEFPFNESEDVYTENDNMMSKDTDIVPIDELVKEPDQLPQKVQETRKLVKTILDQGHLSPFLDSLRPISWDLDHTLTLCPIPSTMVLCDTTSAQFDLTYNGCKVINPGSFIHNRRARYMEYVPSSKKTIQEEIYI
T1 sequence (P27344 whole entry, chain 3 of 4): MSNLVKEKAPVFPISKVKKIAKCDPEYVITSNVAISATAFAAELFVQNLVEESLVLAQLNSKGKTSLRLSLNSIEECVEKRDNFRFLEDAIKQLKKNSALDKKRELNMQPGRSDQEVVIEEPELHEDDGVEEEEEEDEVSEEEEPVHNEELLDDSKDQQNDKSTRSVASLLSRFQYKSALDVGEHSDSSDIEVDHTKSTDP
T1 sequence (Q04603 whole entry, chain 4 of 4): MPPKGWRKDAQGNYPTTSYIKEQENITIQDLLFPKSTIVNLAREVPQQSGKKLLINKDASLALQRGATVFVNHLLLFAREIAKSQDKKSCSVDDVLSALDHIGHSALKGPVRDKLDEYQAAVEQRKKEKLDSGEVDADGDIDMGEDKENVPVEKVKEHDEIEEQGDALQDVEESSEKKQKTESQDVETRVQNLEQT

[2] = target: T2, GINS tetramer (Sld5, Psf1, Psf2, Psf3), S. cerevisiae (S. cerevisiae, UniProt Q03406 1-294; Q12488 1-208; P40359 1-213; Q12146 1-194); assay: co-IP; purified proteins mixed: 10 nM FLAG-Rrm3 with 15 nM GINS, 10 min on ice; anti-FLAG M2 magnetic beads; 25 mM Hepes-KOH pH 7.6, 200 mM KOAc, 0.02% NP-40-S, 0.1 mg/mL BSA, 1 mM DTT, 10 mM Mg(OAc)2; immunoblotting
T2 construct: Sld5, GINS subunit, S. cerevisiae; Psf1, GINS subunit, S. cerevisiae; Psf2, GINS subunit, S. cerevisiae; Psf3, GINS subunit, S. cerevisiae; pJL005 with TwinStrep-Psf3; also called tetrameric GINS complex; source: purified as previously described (Yeeles et al, 2015; Lewis et al, 2022); copies: + + +
T2 sequence (looked up) 1: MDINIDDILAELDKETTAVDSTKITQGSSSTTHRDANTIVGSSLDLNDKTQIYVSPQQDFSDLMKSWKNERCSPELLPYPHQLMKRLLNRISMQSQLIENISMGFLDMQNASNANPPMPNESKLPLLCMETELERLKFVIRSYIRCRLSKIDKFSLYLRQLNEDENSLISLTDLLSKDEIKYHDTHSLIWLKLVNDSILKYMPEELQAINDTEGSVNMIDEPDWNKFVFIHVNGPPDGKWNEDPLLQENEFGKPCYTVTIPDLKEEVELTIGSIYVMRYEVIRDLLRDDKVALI
T2 sequence (looked up) 2: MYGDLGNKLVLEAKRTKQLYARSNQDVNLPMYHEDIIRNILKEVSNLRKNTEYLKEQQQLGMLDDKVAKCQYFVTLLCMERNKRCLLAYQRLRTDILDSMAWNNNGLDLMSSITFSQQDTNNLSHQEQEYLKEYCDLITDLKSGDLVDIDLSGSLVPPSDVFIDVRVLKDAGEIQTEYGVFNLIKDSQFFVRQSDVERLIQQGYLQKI
T2 sequence (looked up) 3: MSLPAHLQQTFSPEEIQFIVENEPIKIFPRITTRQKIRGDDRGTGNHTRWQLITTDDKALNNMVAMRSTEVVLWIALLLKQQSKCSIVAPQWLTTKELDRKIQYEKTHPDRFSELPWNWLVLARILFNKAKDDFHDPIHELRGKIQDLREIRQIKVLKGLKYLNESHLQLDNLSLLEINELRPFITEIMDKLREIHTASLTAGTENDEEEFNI
T2 sequence (looked up) 4: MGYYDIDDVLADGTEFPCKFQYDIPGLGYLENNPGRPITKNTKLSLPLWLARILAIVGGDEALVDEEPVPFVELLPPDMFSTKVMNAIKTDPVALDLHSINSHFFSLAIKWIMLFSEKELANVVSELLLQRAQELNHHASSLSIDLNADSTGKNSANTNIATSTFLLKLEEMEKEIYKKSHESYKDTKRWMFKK

[3] = target: T3, Homo sapiens CMG helicase (CDC45-MCM2-7-GINS) (human, UniProt P49736 1-904; P25205 1-808; P33991 1-863; P33992 1-734; Q14566 1-821; P33993 …); assay: co-IP; purified proteins mixed: 10 nM RTEL1-FLAG with 15 nM hsCMG, 10 min on ice; anti-FLAG M2 magnetic beads; 25 mM Hepes-KOH pH 7.6, 100 mM KOAc, 0.02% NP-40-S, 0.1 mg/mL BSA, 1 mM DTT, 10 mM Mg(OAc)2; immunoblotting
T3 construct: MCM2, human, subunit of CMG; MCM3, human, subunit of CMG; MCM4, human, subunit of CMG; MCM5, human, subunit of CMG; MCM6, human, subunit of CMG; MCM7, human, subunit of CMG; CDC45, human, subunit of CMG; SLD5 (GINS4), human, GINS subunit of CMG (PrA-3TEV-HsSld5; eluted from IgG Sepharose with TEV protease); PSF1 (GINS1), human, GINS subunit of CMG; PSF2 (GINS2), human, GINS subunit of CMG; PSF3 …

| Binder | binding result [2] | further results |
| --- | --- | --- |
| Rrm3Δ111-130 (enzyme, S. cerevisiae, UniProt P38766 1-723, looked up, Plasmid pOO10; source: S. cerevisiae strain yOO5, purified (anti-FLAG M2 resin, HiTrap heparin); not shown: 3FLAG, N-terminal, kept) MFRSHASGNKKQWSKRSSNGSTPAASASGSHAYRQQTLSSFFMGCGKKSAAASKNSTTIIDLESGDEGNRNITAPPRPRLIRNNSSSLFSQSQGSFGDDDPDAEFKKLVDHKTASASTTQKTYHFDEDETLREVTSVKSNSRQLSFTSTINIEDSSMKLSTDSERPAKRSKPSMEFQGLKLTVPKKIKPLLRKTVSNMDSMNHRSASSPVVLTMEQERVVNLIVKKRTNVFYTGSAGTGKSVILQTIIRQLSSLYGKESIAITASTGLAAVTIGGSTLHKWSGIGIGNKTIDQLVKKIQSQKDLLAAWRYTKVLIIDEISMVDGNLLDKLEQIARRIRKNDDPFGGIQLVLTGDFFQLPPVAKKDEHNVVKFCFESEMWKRCIQKTILLTKVFRQQDNKLIDILNAIRYGELTVDIAKTIRNLNRDIDYADGIAPTELYATRREVELSNVKKLQSLPGDLYEFKAVDNAPERYQAILDSSLMVEKVVALKEDAQVMMLKNKPDVELVNGSLGKVLFFVTESLVVKMKEIYKIVDDEVVMDMRLVSRVIGNPLLKESKEFRQDLNARPLARLERLKILINYAVKISPHKEKFPYVRWTVGKNKYIHELMVPERFPIDIPRENVGLERTQIPLMLCWALSIHKAQGQTIQRLKVDLRRIFEAGQVYVALSRAVTMDTLQVLNFDPGKIRTNERVKDFYKRLETLK |  | binding result [1]: binds |
| Rrm3Δ86-110 (enzyme, S. cerevisiae, UniProt P38766 1-723, looked up, Plasmid pOO14; also called 3FLAG-TEV RRM3-∆86-110; source: S. cerevisiae strain yOO7, purified (anti-FLAG M2 resin, HiTrap heparin); not shown: 3FLAG, N-terminal, kept) MFRSHASGNKKQWSKRSSNGSTPAASASGSHAYRQQTLSSFFMGCGKKSAAASKNSTTIIDLESGDEGNRNITAPPRPRLIRNNSVPRLNSYKKSSRSLSMTSSLHKTASASTTQKTYHFDEDETLREVTSVKSNSRQLSFTSTINIEDSSMKLSTDSERPAKRSKPSMEFQGLKLTVPKKIKPLLRKTVSNMDSMNHRSASSPVVLTMEQERVVNLIVKKRTNVFYTGSAGTGKSVILQTIIRQLSSLYGKESIAITASTGLAAVTIGGSTLHKWSGIGIGNKTIDQLVKKIQSQKDLLAAWRYTKVLIIDEISMVDGNLLDKLEQIARRIRKNDDPFGGIQLVLTGDFFQLPPVAKKDEHNVVKFCFESEMWKRCIQKTILLTKVFRQQDNKLIDILNAIRYGELTVDIAKTIRNLNRDIDYADGIAPTELYATRREVELSNVKKLQSLPGDLYEFKAVDNAPERYQAILDSSLMVEKVVALKEDAQVMMLKNKPDVELVNGSLGKVLFFVTESLVVKMKEIYKIVDDEVVMDMRLVSRVIGNPLLKESKEFRQDLNARPLARLERLKILINYAVKISPHKEKFPYVRWTVGKNKYIHELMVPERFPIDIPRENVGLERTQIPLMLCWALSIHKAQGQTIQRLKVDLRRIFEAGQVYVALSRAVTMDTLQVLNFDPGKIRTNERVKDFYKRLETLK | binds |  |
| Rrm3-6A (Rrm3 F89A, Q93A, F96A, D99A, E104A, L108A) (enzyme, S. cerevisiae, UniProt P38766 1-723, looked up, Plasmid pOO16; also called 3FLAG-TEV-RRM3-6A; source: S. cerevisiae strain yOO8, purified (anti-FLAG M2 resin, HiTrap heparin); not shown: 3FLAG, N-terminal, kept) MFRSHASGNKKQWSKRSSNGSTPAASASGSHAYRQQTLSSFFMGCGKKSAAASKNSTTIIDLESGDEGNRNITAPPRPRLIRNNSSSLASQSAGSAGDADPDAAFKKAVDVPRLNSYKKSSRSLSMTSSLHKTASASTTQKTYHFDEDETLREVTSVKSNSRQLSFTSTINIEDSSMKLSTDSERPAKRSKPSMEFQGLKLTVPKKIKPLLRKTVSNMDSMNHRSASSPVVLTMEQERVVNLIVKKRTNVFYTGSAGTGKSVILQTIIRQLSSLYGKESIAITASTGLAAVTIGGSTLHKWSGIGIGNKTIDQLVKKIQSQKDLLAAWRYTKVLIIDEISMVDGNLLDKLEQIARRIRKNDDPFGGIQLVLTGDFFQLPPVAKKDEHNVVKFCFESEMWKRCIQKTILLTKVFRQQDNKLIDILNAIRYGELTVDIAKTIRNLNRDIDYADGIAPTELYATRREVELSNVKKLQSLPGDLYEFKAVDNAPERYQAILDSSLMVEKVVALKEDAQVMMLKNKPDVELVNGSLGKVLFFVTESLVVKMKEIYKIVDDEVVMDMRLVSRVIGNPLLKESKEFRQDLNARPLARLERLKILINYAVKISPHKEKFPYVRWTVGKNKYIHELMVPERFPIDIPRENVGLERTQIPLMLCWALSIHKAQGQTIQRLKVDLRRIFEAGQVYVALSRAVTMDTLQVLNFDPGKIRTNERVKDFYKRLETLK | binds |  |
| Rrm3-CR (Rrm3 F89D, Q93A, F96K, D99K, E104K) (enzyme, S. cerevisiae, UniProt P38766 1-723, looked up, Plasmid pOO15; also called 3FLAG-TEV-RRM3-CR; source: S. cerevisiae strain yOO9, purified (anti-FLAG M2 resin, HiTrap heparin); not shown: 3FLAG, N-terminal, kept) MFRSHASGNKKQWSKRSSNGSTPAASASGSHAYRQQTLSSFFMGCGKKSAAASKNSTTIIDLESGDEGNRNITAPPRPRLIRNNSSSLDSQSAGSKGDKDPDAKFKKLVDVPRLNSYKKSSRSLSMTSSLHKTASASTTQKTYHFDEDETLREVTSVKSNSRQLSFTSTINIEDSSMKLSTDSERPAKRSKPSMEFQGLKLTVPKKIKPLLRKTVSNMDSMNHRSASSPVVLTMEQERVVNLIVKKRTNVFYTGSAGTGKSVILQTIIRQLSSLYGKESIAITASTGLAAVTIGGSTLHKWSGIGIGNKTIDQLVKKIQSQKDLLAAWRYTKVLIIDEISMVDGNLLDKLEQIARRIRKNDDPFGGIQLVLTGDFFQLPPVAKKDEHNVVKFCFESEMWKRCIQKTILLTKVFRQQDNKLIDILNAIRYGELTVDIAKTIRNLNRDIDYADGIAPTELYATRREVELSNVKKLQSLPGDLYEFKAVDNAPERYQAILDSSLMVEKVVALKEDAQVMMLKNKPDVELVNGSLGKVLFFVTESLVVKMKEIYKIVDDEVVMDMRLVSRVIGNPLLKESKEFRQDLNARPLARLERLKILINYAVKISPHKEKFPYVRWTVGKNKYIHELMVPERFPIDIPRENVGLERTQIPLMLCWALSIHKAQGQTIQRLKVDLRRIFEAGQVYVALSRAVTMDTLQVLNFDPGKIRTNERVKDFYKRLETLK | binds |  |
| Homo sapiens RTEL1 (wild-type, FLAG-tagged) (enzyme, human, UniProt Q9NZ71-1 1-1219, looked up, RTEL1, human; the models and residue numbers are of isoform 1 (NP_057518.1), printed to residue 1219; Plasmid pTD195; The isoform is printed for the AlphaFold models; the deletion mutants use the same numbering; also called hsRTEL1; RTEL1-2FLAG; source: S. cerevisiae strain yOO1, purified (anti-FLAG M2 resin, HiLoad Superdex 200); not shown: 2XFLAG, C-terminal, kept) MPKIVLNGVTVDFPFQPYKCQQEYMTKVLECLQQKVNGILESPTGTGKTLCLLCTTLAWREHLRDGISARKIAERAQGELFPDRALSSWGNAAAAAGDPIACYTDIPKIIYASRTHSQLTQVINELRNTSYRPKVCVLGSREQLCIHPEVKKQESNHLQIHLCRKKVASRSCHFYNNVEEKSLEQELASPILDIEDLVKSGSKHRVCPYYLSRNLKQQADIIFMPYNYLLDAKSRRAHNIDLKGTVVIFDEAHNVEKMCEESASFDLTPHDLASGLDVIDQVLEEQTKAAQQGEPHPEFSADSPSPGLNMELEDIAKLKMILLRLEGAIDAVELPGDDSGVTKPGSYIFELFAEAQITFQTKGCILDSLDQIIQHLAGRAGVFTNTAGLQKLADIIQIVFSVDPSEGSPGSPAGLGALQSYKVHIHPDAGHRRTAQRSDAWSTTAARKRGKVLSYWCFSPGHSMHELVRQGVRSLILTSGTLAPVSSFALEMQIPFPVCLENPHIIDKHQIWVGVVPRGPDGAQLSSAFDRRFSEECLSSLGKALGNIARVVPYGLLIFFPSYPVMEKSLEFWRARDLARKMEALKPLFVEPRSKGSFSETISAYYARVAAPGSTGATFLAVCRGKASEGLDFSDTNGRGVIVTGLPYPPRMDPRVVLKMQFLDEMKGQGGAGGQFLSGQEWYRQQASRAVNQAIGRVIRHRQDYGAVFLCDHRFAFADARAQLPSWVRPHVRVYDNFGHVIRDVAQFFRVAERTMPAPAPRATAPSVRGEDAVSEAKSPGPFFSTRKAKSLDLHVPSLKQRSSGSPAAGDPESSLCVEYEQEPVPARQRPRGLLAALEHSEQRAGSPGEEQAHSCSTLSLLSEKRPAEEPRGGRKKIRLVSHPEEPVAGAQTDRAKLFMVAVKQELSQANFATFTQALQDYKGSDDFAALAACLGPLFAEDPKKHNLLQGFYQFVRPHHKQQFEEVCIQLTGRGCGYRPEHSIPRRQRAQPVLDPTGRTAPDPKLTVSTAAAQQLDPQEHLNQGRPHLSPRPPPTGDPGSQPQWGSGVPRAGKQGQHAVSAYLADARRALGSAGCSQLLAALTAYKQDDDLDKVLAVLAALTTAKPEDFPLLHRFSMFVRPHHKQRFSQTCTDLTGRPYPGMEPPGPQEERLAVPPVLTHRAPQPGPSRSEKTGKTQSKISSFLRQRPAGTVGAGGEDAGPSQSSGPPHGPAASEWGL |  | binding result [3]: binds |
